Data reported in doi:10.1101/373860 (bioRxiv, 2018).

Target: the molecule itself
Test: cryo-EM structure

B1: Arabidopsis thaliana two-pore channel 1 with D240N, D454N, E528Q (AtTPC1DDE), deletion of residues 2-11 (natural protein, UniProt Q94KI8 1-733, looked up)
chain: MGGGGTDRVRRSEAITHGTPFQKAAALVDLAEDGIGLPVEILDQSSFGESARYYFIFTRLDLIWSLNYFALLFLNFFEQPLWCEKNPKPSCKDRDYYYLGELPYLTNAESIIYEVITLAILLVHTFFPISYEGSRIFWTSRLNLVKVACVVILFVDVLVDFLYLSPLAFDFLPFRIAPYVRVIIFILSIRELRDTLVLLSGMLGTYLNILALWMLFLLFASWIAFVMFENTQQGLTVFTSYGATLYQMFILFTTSNNPDVWIPAYKSSRWSSVFFVLYVLIGVYFVTNLILAVVYDSFKEQLAKQVSGMDQMKRRMLEKAFGLIDSDKNGEIDKNQCIKLFEQLTNYRTLPKISKEEFGLIFDELDDTRDFKINKDEFADLCQAIALRFQKEEVPSLFEHFPQIYHSALSQQLRAFVRSPNFGYAISFILIINFIAVVVETTLNIEESSAQKPWQVAEFVFGWIYVLEMALKIYTYGFENYWREGANRFDFLVTWVIVIGETATFITPDENTFFSNGQWIRYLLLARMLRLIRLLMNVQRYRAFIATFITLIPSLMPYLGTIFCVLCIYCSIGVQVFGGLVNAGNKKLFETELAEDDYLLFNFNDYPNGMVTLFNLLVMGNWQVWMESYKDLTGTWWSITYFVSFYVITILLLLNLVVAFVLEAFFTELDLEEEEKCQGQDSQEKRNRRRSAGSKSRSQRVDTLLHHMLGDELSKPECSTSDT
stoichiometry N: 2
